Article PMC8199036, “Improved Tumor-Targeting with Peptidomimetic Analogs of Minigastrin ^177Lu-PP-F11N” (Cancers, 2021)
Where two headings read alike, the source gives them in different places. Starred links: 1 amine or outer side, 2 acyl side, 3 side chain; linkers in the order of their positions; H or OH if unused. Non-standard residues stand in square brackets, D forms with d. Residues, ends and D or L forms follow the SMILES beside them. *: point of attachment. DOTA = O=C(O)CN1CCN(CC(=O)O)CCN(CC(=O)*)CCN(CC(=O)O)CC1; X1 = C[C@@H](C(=O)[*:2])n1cc([C@@H](CCC(=O)O)N[*:1])nn1; X2 = O=C(Cn1cc([C@H](Cc2ccc(O)cc2)N[*:1])nn1)[*:2]; Nle = CCCC[C@H](N)C(=O)O

Key:
CCK2R = biological target: T1, CCK2R (Homo sapiens, UniProt P32239); test: competition binding assay (receptor displacement of 177Lu-PP-F11N); details: read-out: IC50 (95% CI); 175Lu-labeled; displacement of 177Lu-PP-F11N (2 nM) on A431-CCK2R cells
T1 construct: expressed in transfected cells; host or cells: A431-CCK2R cells
T1 sequence (P32239 1-447): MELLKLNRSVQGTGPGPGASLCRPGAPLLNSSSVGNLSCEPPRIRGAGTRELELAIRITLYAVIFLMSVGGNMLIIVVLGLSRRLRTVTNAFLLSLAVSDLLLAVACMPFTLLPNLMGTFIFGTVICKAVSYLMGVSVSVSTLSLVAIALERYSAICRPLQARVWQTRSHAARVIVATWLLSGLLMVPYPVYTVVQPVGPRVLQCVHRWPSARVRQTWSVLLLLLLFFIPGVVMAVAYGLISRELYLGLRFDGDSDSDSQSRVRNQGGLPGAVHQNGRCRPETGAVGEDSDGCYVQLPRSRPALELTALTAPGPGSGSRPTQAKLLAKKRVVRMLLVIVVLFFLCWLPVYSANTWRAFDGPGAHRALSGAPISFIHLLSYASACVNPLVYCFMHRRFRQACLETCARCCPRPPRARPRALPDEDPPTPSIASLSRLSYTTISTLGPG
Excerpt: (§1) Procedures for (radio)metal labeling of the DOTA–minigastrin conjugates with ^177Lu^3+ and ^natLu^3+, cell culturing of A431-CCK2R cells, cell internalization (including blocking experiments with excess minigastrin (H-LE5AYGWMDF-NH2)), competition binding assays (IC50), stability measurements in human blood plasma, and determinations of logDpH 7.4 have been reported previously for the in vitro evaluation of TZMGs and were applied to NMGs without alteration.
Figure 2 (A) Total internalization of ^177Lu-labeled conjugates (2 nM, 5 kBq) in […] cells over 4 h (n = 3–4 in triplicate). […] Data points show mean value ± standard deviation.

[1] = logD pH 7.4 determination; type: physicochemical; details: 177Lu-labeled
Excerpt: as §1

[2] = biodistribution in mice with CCK2R-positive xenografts; type: in vivo, female CD1-nu mice; details: female, CD1-nu, mouse, total radioactivity; for tissue uptake at 1 h / tissue uptake at 4 h / tissue uptake at 24 h: in vivo
Procedure: (§2) Procedures for biodistribution studies with ^177Lu-labeled conjugates (10 pmol, 100 µL, 0.1 µM in PBS, 0.5 MBq, 1 µg/kg) in female CD1-nu mice with xenografts of A431-CCK2R cells at 1, 4, and 24 h p.i., as well as blocking experiments at 4 h p.i. with a 6000-fold excess of minigastrin have been reported previously and were followed without modifications. Statistical analysis was performed via GraphPad Prism using two-sided analysis of variance. n = 4 animals per group.

[3] = tested on: xenografts of A431-CCK2R cells; test: as above; type: in vivo, female CD1-nu mice
Procedure: as §2

[4] = tested on: A431-CCK2R cells xenografts; test: SPECT/CT imaging of mice with tumor xenografts; type: in vivo, female CD1-nu mice; details: 24 h p.i.
Procedure: 10–14 days prior to the experiment, 6-week-old female CD1-nu mice were inoculated with 5 × 10^6 A431-CCK2R cells (0.1 mL, 5 × 10^7 cells/mL in PBS) subcutaneously in both shoulders. The mice were randomly assigned to groups of two animals. On the day of the experiment, ^177Lu-labeled conjugates (200 pmol, 100 µL, 2 µM in PBS, 20 MBq, 20 µg/kg) were injected via the tail vein. The mice were kept with food and water ad libitum. SPECT scans of 40 min (1 and 4 h p.i., frame duration 60 sec) or 60 min (24 h p.i., frame duration 80 sec) were acquired after an initial CT scan of 7.5 min (CT tube voltage 55 kV, CT tube current 145 µA) with a multi-pinhole NanoSPECT/CTplus (Bioscan Inc., […], and Mediso, Hungary). For the duration of the SPECT/CT scans, mice were kept under anesthesia with a mixture of isoflurane (1.5–2.5%) and oxygen and warmed by a constant air flow of 37 °C. The images were reconstructed with HiSPECT and analyzed in VivoQuant. A post-reconstruction filter was applied (Gauss, full width at half max, 1 mm) to the SPECT images, and the scale was adjusted to visualize important organs and tissues (0.001–0.004 kBq/voxel). n = 2 animals per group.

A431-CCK2R cells = test: cell binding and internalization; type: cell-based; details: 177Lu-labeled, % of applied radioactivity
[5] = 10 pmol, Stomach (CCK2R-positive) uptake
[6] = 10 pmol, Tumor (CCK2R-positive) uptake
[7] = tumor / blood, 10 pmol, read-out: Tumor-to-Blood ratio
[8] = tumor / kidneys, 10 pmol, read-out: Tumor-to-Kidneys ratio
[9] = tumor / muscle, 10 pmol, read-out: Tumor-to-Muscle ratio
[10] = tumor / stomach, 10 pmol, read-out: Tumor-to-Stomach ratio

With `CCCC[C@H](NC(=O)[C@H](Cc1c[nH]c2ccccc12)NC(=O)Cn1cc([C@H](Cc2ccc(O)cc2)NC(=O)[C@H](C)n2cc([C@@H](CCC(=O)O)NC(=O)[C@@H](CCC(=O)O)NC(=O)[C@@H](CCC(=O)O)NC(=O)[C@@H](CCC(=O)O)NC(=O)[C@@H](CCC(=O)O)NC(=O)[C@@H](CCC(=O)O)NC(=O)CN3CCN(CC(=O)O)CCN(CC(=O)O)CCN(CC(=O)O)CC3)nn2)nn1)C(=O)N[C@@H](CC(=O)O)C(=O)N[C@@H](Cc1ccccc1)C(N)=O` [NMG 3, DOTA-(DGlu)6 -Ψ[Tz]-Ala-Tyr-Ψ[Tz]-Gly-Trp-Nle-Asp-Phe-NH2] ({DOTA}-[dE][dE][dE][dE][dE][X1][X2]W[Nle]DF-NH2) the IC50 (CCK2R) was 2 nM, the “logDpH 7.4” value [1] was -3.95 ± 0.42 and the tissue uptake at 1 h ([2]; 10 pmol, Blood uptake) was 0.51 %ID/g. For the same molecule, the tissue uptake at 4 h ([2]; 10 pmol, Blood uptake) was 0.02 %ID/g, the tissue uptake at 24 h ([2]; 10 pmol, Blood uptake) was < 0.01 %ID/g and the tissue uptake at 1 h ([2]; 10 pmol, Bone uptake) was 0.45 %ID/g. It also gave a tissue uptake at 24 h ([2]; 10 pmol, Bone uptake) of 0.07 %ID/g, a tissue uptake at 1 h ([2]; 10 pmol, Heart uptake) of 0.19 %ID/g and a tissue uptake at 4 h ([2]; 10 pmol, Heart uptake) of 0.03 %ID/g. The tissue uptake at 24 h ([2]; 10 pmol, Heart uptake) was 0.01 %ID/g, the tissue uptake at 1 h ([2]; 10 pmol, Intestines uptake) was 0.25 %ID/g and the tissue uptake at 4 h ([2]; 10 pmol, Intestines uptake) was 0.1 %ID/g. The tissue uptake at 24 h ([2]; 10 pmol, Intestines uptake) was 0.02 %ID/g, the tissue uptake at 1 h ([2]; 10 pmol, Kidneys uptake) was 2.01 %ID/g and the tissue uptake at 4 h ([2]; 10 pmol, Kidneys uptake) was 1.74 %ID/g. The tissue uptake at 24 h ([2]; 10 pmol, Kidneys uptake) was 1.09 %ID/g, the tissue uptake at 1 h ([2]; 10 pmol, Liver uptake) was 0.16 %ID/g and the tissue uptake at 4 h ([2]; 10 pmol, Liver uptake) was 0.07 %ID/g. It also gave a tissue uptake at 24 h ([2]; 10 pmol, Liver uptake) of 0.04 %ID/g, a tissue uptake at 1 h ([2]; 10 pmol, Lung uptake) of 0.33 %ID/g and a tissue uptake at 4 h ([2]; 10 pmol, Lung uptake) of 0.07 %ID/g. The tissue uptake at 24 h ([2]; 10 pmol, Lung uptake) was 0.03 %ID/g, the tissue uptake at 1 h ([2]; 10 pmol, Muscle uptake) was 0.13 %ID/g and the tissue uptake at 24 h ([2]; 10 pmol, Muscle uptake) was 0.01 %ID/g. For the same molecule, the tissue uptake at 1 h ([2]; 10 pmol, Pancreas uptake) was 0.49 %ID/g, the tissue uptake at 4 h ([2]; 10 pmol, Pancreas uptake) was 0.24 %ID/g and the tissue uptake at 24 h ([2]; 10 pmol, Pancreas uptake) was 0.17 %ID/g. The tissue uptake at 1 h ([2]; 10 pmol, Spleen uptake) was 0.13 %ID/g, the tissue uptake at 4 h ([2]; 10 pmol, Spleen uptake) was 0.05 %ID/g and the tissue uptake at 1 h [2, 5] was 3.76 %ID/g. It also gave a tissue uptake at 4 h [2, 5] of 3.11 %ID/g, a tissue uptake at 24 h [2, 5] of 1.51 %ID/g and a tissue uptake at 1 h [2, 6] of 9.43 %ID/g. For the same molecule, the tissue uptake at 4 h [2, 6] was 6.9 %ID/g, the tissue uptake at 24 h [2, 6] was 5.24 %ID/g and the tissue uptake at 4 h ([2]; Blood uptake) was 0.03 %ID/g. For the same molecule, the tissue uptake at 4 h ([2]; Heart uptake) was 0.05 %ID/g, the tissue uptake at 4 h ([2]; Intestines uptake) was 0.07 %ID/g and the tissue uptake at 4 h ([2]; Kidneys uptake) was 1.88 %ID/g. It also gave a tissue uptake at 4 h ([2]; Liver uptake) of 0.09 %ID/g, a tissue uptake at 4 h ([2]; Lung uptake) of 0.09 %ID/g and a tissue uptake at 4 h ([2]; Pancreas uptake) of 0.19 %ID/g. For the same molecule, the tissue uptake at 4 h ([2]; Spleen uptake) was 0.06 %ID/g, the tissue uptake at 4 h ([2]; Stomach (CCK2R-positive) uptake) was 0.65 %ID/g and the tissue uptake at 4 h ([2]; Tumor (CCK2R-positive) uptake) was 3.43 %ID/g. It also gave a tissue to tissue ratio at 1 h [2, 7] of 19.5 ± 7.58, a tissue to tissue ratio at 4 h [2, 7] of 345 ± 34.6 and a tissue to tissue ratio at 24 h [2, 7] of 4370 ± 541. For the same molecule, the tissue to tissue ratio at 1 h [2, 8] was 4.7 ± 1.2, the tissue to tissue ratio at 4 h [2, 8] was 3.99 ± 0.43 and the tissue to tissue ratio at 24 h [2, 8] was 3.65 ± 0.99. It also gave a tissue to tissue ratio at 1 h [2, 9] of 79 ± 15.7, a tissue to tissue ratio at 4 h [2, 9] of 505 ± 158 and a tissue to tissue ratio at 24 h [2, 9] of 437 ± 54.1. It also gave a tissue to tissue ratio at 1 h [2, 10] of 2.66 ± 1.08, a tissue to tissue ratio at 4 h [2, 10] of 2.22 ± 0.2 and a tissue to tissue ratio at 24 h [2, 10] of 3.06 ± 1.44. The “Tumor washout: tumor uptake relative to 1h” value ([3]; 4 h) was 73%, the “Tumor washout: tumor uptake relative to 1h” value ([3]; 24 h) was 56% and the Blood uptake ([3]; female, CD1-nu, mouse, in vivo, 10 pmol, 1 h) was < 0.5 % i.A./g. The “visualization of tumor xenografts by SPECT/CT” value [4] was “clearly visualized” and the “Internalization 4 h Total (%)” value (A431-CCK2R cells) was 76.5 ± 2.8%.
